# T1: O772P 3-repeat recombinant protein (human)
# T1 construct: Repeats are residues 14-452 of the entry
# T1 chain: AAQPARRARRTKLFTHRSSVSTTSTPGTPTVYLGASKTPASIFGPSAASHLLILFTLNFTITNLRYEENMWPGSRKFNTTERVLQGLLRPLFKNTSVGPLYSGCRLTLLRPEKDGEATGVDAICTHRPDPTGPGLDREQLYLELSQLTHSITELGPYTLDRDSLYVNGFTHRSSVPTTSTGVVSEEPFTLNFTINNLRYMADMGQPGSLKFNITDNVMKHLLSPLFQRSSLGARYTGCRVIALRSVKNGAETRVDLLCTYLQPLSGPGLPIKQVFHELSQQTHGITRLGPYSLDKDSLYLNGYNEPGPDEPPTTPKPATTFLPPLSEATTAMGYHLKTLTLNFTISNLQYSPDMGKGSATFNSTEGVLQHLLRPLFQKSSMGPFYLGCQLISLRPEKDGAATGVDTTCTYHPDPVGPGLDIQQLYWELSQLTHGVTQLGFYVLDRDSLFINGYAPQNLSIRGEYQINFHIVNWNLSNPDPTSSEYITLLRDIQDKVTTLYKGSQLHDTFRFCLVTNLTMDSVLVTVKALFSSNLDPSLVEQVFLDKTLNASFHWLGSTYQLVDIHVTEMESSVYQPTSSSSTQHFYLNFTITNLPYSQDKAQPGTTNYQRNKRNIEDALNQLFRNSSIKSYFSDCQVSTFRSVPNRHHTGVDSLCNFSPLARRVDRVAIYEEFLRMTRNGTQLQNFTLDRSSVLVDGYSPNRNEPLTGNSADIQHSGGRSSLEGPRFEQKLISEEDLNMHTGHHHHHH
# Assays:
# [1] = molecular target: T2, CA 125/O772P on OVCAR-3 cells (human, UniProt Q8WXI7 1-14507); experiment: flow cytometry, OVCAR-3 cells; Ab 2 µg/ml
# T2 construct: whole, on cells
# [2] = molecular target: T1, O772P 3-repeat recombinant protein; experiment: ELISA, plate-bound O772P 3-repeat
# Procedure: On the next day, the plates were washed with 200 μl 1×PBST (1× phosphate-buffered saline (PBS), 0.05% Tween 20) three times and blocked with 100 μl of 1×PBST containing 1% bovine serum albumin (BSA) for 2 hours at 37° C. […] After 1 hour incubation at 37° C., the plates were then washed with 1×PBST three times. For signal detection, 100 μl of HRP (horseradish peroxidase)-conjugated sheep anti-mouse IgG (1:2000 dilution into 1×PBST+1% BSA; Amersham Biosciences) was added to each well and incubated for 1 hour at 37° C. The plates were again washed three times with 1×PBST. Finally, 100 μl¹ of a mixture of TMB (3,3′, 5,5′-tetramethylbenzidine) substrate and H₂O₂ (1:1 ratio, KPL Kirkguard Perry Laboratories) was added into each well and after a 5 minute incubation, the absorbance was measured at 405 nm with a plate reader (Molecular Devices Corp., Sunnyvale, Calif.). The assay was done in triplicate for each selected O772P hybridoma-produced antibody and data was collected and analyzed as a kinetic assay, measured over a 5 minute time period. Average values were calculated and presented. Controls for blank and individual reagents were also included in each experiment.
# [3] = molecular target: T3, shed CA 125/O772P polypeptide (human, UniProt Q8WXI7 1-14401, limits assumed); experiment: western blot of OVCAR-3 conditioned media (Time 0, 1 hour, 6 hours, Day 1, Day 2, Day 3), chemiluminescence
# T3 construct: OVCAR-3 conditioned medium in the western blot; also called high molecular weight species in OVCAR-3 supernatant
% positive cells [1] [%],absorbance (OD) [2] [OD],absorbance (OD)/µg Ab [2] [OD/µg Ab],Binder,binding result [3]
93,0.619,15,"monoclonal antibody 117.1 (antibody, V domains shown, Murine hybridoma antibody) VH: QVTLKESGPGILQPSQTLSLTCSFSGFSLSTPGMGVGWIRQPSGKGLEWLAHIWWDDFKRDNPALKSRLTISKDTSSSQVFLKIASVDTADTATYYCVRVDGNFLSWYFDVWGAGTTVTVSS VL: DAVMTQTPLSLPVSLGDQASISCRSSQSLVHSNGNTYLHWYLQKPGQSPKLLIYKVSNRFSGVPDRFSGSGSGTDFTLRISRVEAEDLGVYFCSQSRYVPWTFGGGTKLEIK",
89,1.29,32,"monoclonal antibody 368.1 (antibody, V domains shown, Murine hybridoma antibody) VH: EVQLQQSGPELVRTGASVKISCKASGYSFTGFYMHWVKQSLGKSLEWIGYVSCYTGATTYTQKFKGKATFTVDTSSSTAYMQLNSLTSEDSAVYYCAREGDYYSMDFWGQGTSVTVSS VL: DVVMTQTPLSLPVSLGDQASISCRSSQSLERTNGNTYLHWYLQKPGQSPKLLIYKVSSRFSGVPDRFSGSGSGTDFTLKISRVEAEDLGIYFCSQTTHGPPTCGGGTKLEIK",no binding (tested: Day 3 conditioned medium)
95,0.856,21,"monoclonal antibody 501.1 (antibody, V domains shown, Murine hybridoma antibody) VH: QIQLVQSGPELKKPGETVQISCKASGYIFTDYGMNWVKQAPGKGLKWMGCINTYTGETIYSDDFRGRFAISLETSASTAFIQINNLKNEDAATYFCARGNYRDAIDYWGQGTSVTVSS VL: DIKMTQSPSSIYASLGERVTITCKASQDIKSYLSWYQQKPWKSPKTLIYYATTLADGVPSRFSGSGSGQDYSLIINSLESDDIATYFCLHHDESPFTFGSGTKLEI",

# Reference: patent US20050064518A1 (PURDUE PHARMA L P, published 2005)
